# Laboratory results taken from paper PMC11618457.
# Where two headings read alike, the source gives them in different places.
# T1: Zur(Zn) Cy5-C113 (Escherichia coli, UniProt P0AC51 1-171, C17S;C152S;C158S)
# T1 sequence: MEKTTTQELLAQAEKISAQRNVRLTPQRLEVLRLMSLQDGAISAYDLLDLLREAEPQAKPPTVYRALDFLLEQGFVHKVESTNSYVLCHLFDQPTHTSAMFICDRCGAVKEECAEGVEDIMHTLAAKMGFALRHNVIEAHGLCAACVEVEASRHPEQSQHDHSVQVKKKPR
# T2: Zur(Zn) Cy5-C158 (Escherichia coli, UniProt P0AC51 1-171, C17S;C113S;C152S)
# T2 sequence: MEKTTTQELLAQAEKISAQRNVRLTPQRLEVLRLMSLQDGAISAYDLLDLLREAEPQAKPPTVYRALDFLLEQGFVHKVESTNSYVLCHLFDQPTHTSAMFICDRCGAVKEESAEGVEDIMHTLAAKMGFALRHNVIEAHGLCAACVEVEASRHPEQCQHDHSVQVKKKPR
# T3: Zur(Zn) D49A Cy5-C113 (Escherichia coli, UniProt P0AC51 1-171, C17S;D49A;C152S;C158S)
# T3 sequence: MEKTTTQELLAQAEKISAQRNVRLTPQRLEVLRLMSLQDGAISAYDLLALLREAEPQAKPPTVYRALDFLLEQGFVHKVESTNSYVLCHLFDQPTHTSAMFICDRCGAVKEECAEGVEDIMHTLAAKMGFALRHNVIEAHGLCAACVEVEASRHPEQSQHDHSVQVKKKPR
# B1: 22-bp truncated znuCB DNA (one dyad) (dsDNA)
# DNA 1: AGAAGTGTGATATTATAACATT
# DNA 2: AATGTTATAATATCACACTTCT
# B2: 31-bp znuCB promoter DNA (dsDNA)
# DNA 1: AGAAGTGTGATATTATAACATTTCATGACTA
# DNA 2: TAGTCATGAAATGTTATAATATCACACTTCT
# Key:
# Experiment in all cases: smFRET
# Zur(Zn) Cy5-C113 [1] = biological target: T1, Zur(Zn) Cy5-C113
# Zur(Zn) Cy5-C158 = biological target: T2, Zur(Zn) Cy5-C158
# Zur(Zn) D49A Cy5-C113 [2] = biological target: T3, Zur(Zn) D49A Cy5-C113
# Zur(Zn) Cy5-C113 [3] = biological target: T1, Zur(Zn) Cy5-C113; remark: listed apart in the source
# Zur(Zn) D49A Cy5-C113 [4] = biological target: T3, Zur(Zn) D49A Cy5-C113; remark: listed apart in the source
Binder,binding result (Zur(Zn) Cy5-C113 [1]),binding result (Zur(Zn) Cy5-C158),binding result (Zur(Zn) D49A Cy5-C113 [2]),binding result (Zur(Zn) Cy5-C113 [3]),binding result (Zur(Zn) D49A Cy5-C113 [4])
B1,binds,binds,binds,,
B2,,,,binds,binds
